Each block holds one binder with its values, some of them ahead of it.
Tests used:
APC3354-AA = target: T1, APC3354-AA; assay: two-hybrid library CCmax; conditions: mean of both orientations;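 further: natural log of median RNA to DNA barcode read ratio; higher means stronger binding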
T1 chain: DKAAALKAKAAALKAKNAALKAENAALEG

APC8516-AA = target: T2, APC8516-AA; assay: two-hybrid library CCmax; conditions: mean of both orientations;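 further: natural log of median RNA to DNA barcode read ratio; higher means stronger binding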
T2 chain: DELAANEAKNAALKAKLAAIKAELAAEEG

APC2981-AA = target: T3, APC2981-AA; assay: two-hybrid library CCmax;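 further: natural log of median RNA to DNA barcode read ratio; higher means stronger binding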
T3 chain: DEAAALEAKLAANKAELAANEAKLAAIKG

APC7524-AA = target: T4, APC7524-AA; assay: two-hybrid library CCmax; conditions: mean of both orientations;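 further: natural log of median RNA to DNA barcode read ratio; higher means stronger binding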
T4 chain: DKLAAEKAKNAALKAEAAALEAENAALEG

APC4100-AA = target: T5, APC4100-AA; assay: two-hybrid library CCmax; conditions: mean of both orientations
T5 chain: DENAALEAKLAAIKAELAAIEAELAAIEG

APC9291-AA = target: T6, APC9291-AA; assay: two-hybrid library CCmax; conditions: mean of both orientations
T6 chain: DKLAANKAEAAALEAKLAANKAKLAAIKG

APC5009-AA = target: T7, APC5009-AA; assay: two-hybrid library CCmax; conditions: mean of both orientations
T7 chain: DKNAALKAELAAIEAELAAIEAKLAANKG

APC9182-AA = target: T8, APC9182-AA; assay: two-hybrid library CCmax; conditions: mean of both orientations
T8 chain: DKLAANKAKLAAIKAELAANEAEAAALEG

APC542-AA = target: T9, APC542-AA; assay: two-hybrid library CCmax; conditions: mean of both orientations
T9 chain: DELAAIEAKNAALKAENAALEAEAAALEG

APC6088-AA = target: T10, APC6088-AA; assay: two-hybrid library CCmax; conditions: mean of both orientations
T10 chain: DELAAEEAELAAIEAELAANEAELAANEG

APC9141-AA = target: T11, APC9141-AA; assay: two-hybrid library CCmax; conditions: mean of both orientations
T11 chain: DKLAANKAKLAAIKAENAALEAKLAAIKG

APC9806-AA = target: T12, APC9806-AA; assay: two-hybrid library CCmax; conditions: mean of both orientations
T12 chain: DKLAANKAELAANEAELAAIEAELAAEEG

APC3323-AA = target: T13, APC3323-AA; assay: two-hybrid library CCmax; conditions: mean of both orientations
T13 chain: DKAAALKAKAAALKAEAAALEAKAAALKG

APC5531-AA = target: T14, APC5531-AA; assay: two-hybrid library CCmax; conditions: mean of both orientations
T14 chain: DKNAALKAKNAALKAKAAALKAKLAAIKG

APC8401-AA = target: T15, APC8401-AA; assay: two-hybrid library CCmax; conditions: mean of both orientations
T15 chain: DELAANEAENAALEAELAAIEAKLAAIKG

APC3265-AA = target: T16, APC3265-AA; assay: two-hybrid library CCmax; conditions: mean of both orientations
T16 chain: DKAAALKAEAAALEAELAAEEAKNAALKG

APC3881-AA = target: T17, APC3881-AA; assay: two-hybrid library CCmax; conditions: mean of both orientations
T17 chain: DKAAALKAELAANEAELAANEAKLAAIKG

APC4336-AA = target: T18, APC4336-AA; assay: two-hybrid library CCmax; conditions: mean of both orientations
T18 chain: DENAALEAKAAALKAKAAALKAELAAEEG

4H850-bH = target: T19, 4H850-bH; assay: two-hybrid library CCNG1
T19 chain: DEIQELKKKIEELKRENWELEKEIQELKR

4H591-bH = target: T20, 4H591-bH; assay: two-hybrid library CCNG1
T20 chain: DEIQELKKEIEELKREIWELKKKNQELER

4H3858-bH = target: T21, 4H3858-bH; assay: two-hybrid library CCNG1
T21 chain: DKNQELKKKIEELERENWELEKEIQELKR

4H626-bH = target: T22, 4H626-bH; assay: two-hybrid library CCNG1
T22 chain: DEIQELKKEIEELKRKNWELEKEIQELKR

4H3974-bH = target: T23, 4H3974-bH; assay: two-hybrid library CCNG1
T23 chain: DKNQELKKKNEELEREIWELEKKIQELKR

4H570-bH = target: T24, 4H570-bH; assay: two-hybrid library CCNG1
T24 chain: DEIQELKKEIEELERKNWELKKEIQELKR

4H906-bH = target: T25, 4H906-bH; assay: two-hybrid library CCNG1
T25 chain: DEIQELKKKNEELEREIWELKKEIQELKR

4H3628-bH = target: T26, 4H3628-bH; assay: two-hybrid library CCNG1
T26 chain: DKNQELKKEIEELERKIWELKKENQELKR

4H3926-bH = target: T27, 4H3926-bH; assay: two-hybrid library CCNG1
T27 chain: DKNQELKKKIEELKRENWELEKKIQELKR

4H3817-bH = target: T28, 4H3817-bH; assay: two-hybrid library CCNG1
T28 chain: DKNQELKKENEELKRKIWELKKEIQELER

4H4073-bH = target: T29, 4H4073-bH; assay: two-hybrid library CCNG1
T29 chain: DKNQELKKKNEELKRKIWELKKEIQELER

4H584-bH = target: T30, 4H584-bH; assay: two-hybrid library CCNG1
T30 chain: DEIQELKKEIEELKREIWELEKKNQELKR

4H619-bH = target: T31, 4H619-bH; assay: two-hybrid library CCNG1
T31 chain: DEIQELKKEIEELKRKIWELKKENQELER

- interaction score (APC3354-AA): -2.3
- interaction score (APC8516-AA): -1.73
- interaction score (APC2981-AA): -1.58
- interaction score (APC7524-AA): -1.71
- interaction score (APC4100-AA): -1.62
- interaction score (APC9291-AA): -1.74
- interaction score (APC5009-AA): -1.75
- interaction score (APC9182-AA): -1.76
- interaction score (APC542-AA): -1.62
- interaction score (APC6088-AA): -1.49
- interaction score (APC9141-AA): -1.53
- interaction score (APC9806-AA): -1.51
- interaction score (APC3323-AA): -1.68
- interaction score (APC5531-AA): -1.79
- interaction score (APC8401-AA): -1.71
- interaction score (APC3265-AA): -1.62
- interaction score (APC3881-AA): -1.67
- interaction score (APC4336-AA): -2.05
Binder: DEAAALEAKLAANKAELAANEAKLAAIKG [APC2981-AA]

- interaction score (4H850-bH): 0.701
- interaction score (4H591-bH): 0.0937
- interaction score (4H3858-bH): 0.42
- interaction score (4H626-bH): -0.0728
- interaction score (4H3974-bH): 1.22
- interaction score (4H570-bH): -1.36
- interaction score (4H906-bH): -0.107
- interaction score (4H3628-bH): 0.896
- interaction score (4H3926-bH): 0.588
- interaction score (4H3817-bH): 0.965
Binder: DKNQELKKEIEELERKIWELKKENQELKR [4H3628-bH]

- interaction score (4H4073-bH): -1.13
- interaction score (4H850-bH): -0.885
- interaction score (4H584-bH): -0.723
- interaction score (4H3858-bH): -0.973
- interaction score (4H619-bH): 0.591
- interaction score (4H3974-bH): 0.787
- interaction score (4H570-bH): -0.71
- interaction score (4H906-bH): -0.699
- interaction score (4H3817-bH): 0.775
Binder: DKNQELKKENEELKRKIWELKKEIQELER [4H3817-bH]

From article PMC10397247
